Data reported in US20210171647A1 (WUXI BIOLOGICS SHANGHAI, published 2021).

T1: human OX40, full-length, on cells (human, UniProt P43489 29-277)
T1 construct: whole, on cells; also called hPro1; cell surface human OX40
T1 sequence (looked up): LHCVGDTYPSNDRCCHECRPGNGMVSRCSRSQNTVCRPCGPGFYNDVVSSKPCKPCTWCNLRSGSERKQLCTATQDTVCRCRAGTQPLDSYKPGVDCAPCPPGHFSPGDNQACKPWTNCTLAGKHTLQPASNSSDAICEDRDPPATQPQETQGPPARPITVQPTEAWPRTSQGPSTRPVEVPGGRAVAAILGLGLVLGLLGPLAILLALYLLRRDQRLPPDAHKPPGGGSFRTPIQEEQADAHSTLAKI

T2: human OX40 extracellular domain (ECD) protein (human, UniProt P43489 29-214)
T2 construct: extracellular domain; also called human OX40 ECD; human OX40 protein; not shown: human Fc or His tag
T2 sequence (looked up): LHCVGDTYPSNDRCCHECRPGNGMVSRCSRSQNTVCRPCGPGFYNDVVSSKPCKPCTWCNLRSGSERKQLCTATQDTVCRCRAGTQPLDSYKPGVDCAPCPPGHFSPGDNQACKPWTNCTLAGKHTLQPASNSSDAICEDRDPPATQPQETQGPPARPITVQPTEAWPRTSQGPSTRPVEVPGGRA

T3: human CD271 ECD (human, UniProt P08138 29-250)
T3 construct: extracellular domain
T3 sequence (looked up): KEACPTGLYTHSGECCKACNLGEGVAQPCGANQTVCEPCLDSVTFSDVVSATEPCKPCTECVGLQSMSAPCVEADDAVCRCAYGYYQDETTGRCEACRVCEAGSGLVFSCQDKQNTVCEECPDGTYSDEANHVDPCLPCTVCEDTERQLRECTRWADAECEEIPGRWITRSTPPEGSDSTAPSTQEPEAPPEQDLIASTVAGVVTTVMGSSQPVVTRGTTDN

T4: mouse OX40 (mPro1) on transfected 293F cells (mouse, UniProt P47741 20-272)
T4 construct: whole, on cells
T4 sequence (looked up): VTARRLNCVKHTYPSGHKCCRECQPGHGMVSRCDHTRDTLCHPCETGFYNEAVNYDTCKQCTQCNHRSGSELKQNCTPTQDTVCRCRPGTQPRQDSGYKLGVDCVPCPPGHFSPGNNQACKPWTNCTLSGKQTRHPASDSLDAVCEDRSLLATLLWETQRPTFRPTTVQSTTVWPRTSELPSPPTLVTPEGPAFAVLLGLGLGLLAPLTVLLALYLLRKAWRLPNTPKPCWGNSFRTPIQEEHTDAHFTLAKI


Assays:
[1] = target: T1, human OX40, full-length, on cells; experiment: flow cytometry on human OX40 transfected CHO-K1 cells
Description: (§1) CHO-K 1 cells expressing human OX40 were transferred in to 96-well U-bottom plates (Corning) at a density of 5×10⁴ cells/mL. Testing antibodies were 1:2 serially diluted in wash buffer (1×PBS/1% BSA) and incubated with cells at 4° C. for 1 h. The secondary antibody goat anti-human IgG Fc FITC (3.2 moles FITC per mole IgG, Jackson Immunoresearch Lab) was added and incubated with cells at 4° C. in the dark for half an hour. The cells were then washed once, resuspended in 1×PBS/1% BSA and analyzed by flow cytometry (BD). Fluorescence intensity was converted to bound molecules/cell based on the quantitative beads Quantum™ MESF Kits (Bangs Laboratories, Inc.). The KD value of each antibody was calculated using Graphpad Prism5.

[2] = target: T2, human OX40 extracellular domain (ECD) …; experiment: SPR, Biacore T200, antibody captured, OX40 as analyte
Description: Antibodies were characterized for affinity and binding kinetics to OX40 by SPR assay using Biacore T200 (GE). […] Then various concentrations of human or monkey OX40 and running buffer were flowed through the sensor chip at a flow rate of 30 μL/min for an association phase of 180 s, followed by dissociation. The association and dissociation curve was fit by 1:1 Langmuir binding model using the BIAevaluation T200 software.

[3] = target: T1, human OX40, full-length, on cells; experiment: flow cytometry on activated human CD4+ T cells
Description: Briefly, human OX40-expressing CHO-K1 cells or activated human CD4⁺ T cells were transferred into 96-well U-bottom plates (Corning) at a density of 1×10⁵ cells/well. Testing antibodies were serially diluted in wash buffer (1×PBS/1% BSA) and incubated with cells at 4° C. for 1 h. After washing with 1×PBS/1% BSA, the secondary antibody goat anti-human IgG Fc-PE (Jackson ImmunoResearch Lab) was applied and incubated with cells at 4° C. in the dark for 1 h. The cells were then washed and resuspended in 1×PBS/1% BSA or fixed with 4% paraformaldehyde, and then analyzed by flow cytometry (BD).

human 4-1BB (CD137) ECD = target: T5, human 4-1BB (CD137) ECD (human, UniProt Q07011 24-186); experiment: ELISA on coated ECD, one antibody concentration (not given)
T5 construct: extracellular domain
T5 sequence (Q07011 24-186): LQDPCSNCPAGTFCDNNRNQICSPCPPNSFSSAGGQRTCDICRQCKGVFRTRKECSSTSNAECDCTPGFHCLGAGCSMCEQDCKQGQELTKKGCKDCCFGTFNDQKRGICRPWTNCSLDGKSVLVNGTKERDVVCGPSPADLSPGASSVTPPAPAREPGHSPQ

human CD271 ECD = target: T3, human CD271 ECD; experiment: as above
Description: (§2) Human OX40, CD40, 4-1BB (CD137) and CD271 ECD were coated on plates (Nunc) overnight at 4° C. After blocking and washing, testing antibodies were diluted in blocking buffer and added to the plates and incubated at room temperature for 1 h. The plates were then washed and subsequently incubated with secondary antibody goat anti-human IgG Fc-HRP (Bethyl) for 1 h. After washing, TMB substrate was added and the interaction was stopped by 2M HCl.

human CD40 ECD = target: T6, human CD40 ECD (human, UniProt P25942 21-193); experiment: as above
T6 construct: extracellular domain
T6 sequence (P25942 21-193): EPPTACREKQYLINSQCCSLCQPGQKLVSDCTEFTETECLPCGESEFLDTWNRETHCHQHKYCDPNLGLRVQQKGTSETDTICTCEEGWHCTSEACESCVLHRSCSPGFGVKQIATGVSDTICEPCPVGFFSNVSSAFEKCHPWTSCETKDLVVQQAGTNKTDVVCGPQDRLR
Description: as §2

[4] = target: T2, human OX40 extracellular domain (ECD) …; experiment: competition ELISA: human OX40 ECD coated, antibody titrated in a mix with a constant concentration of OX40L, bound OX40L detected at OD450
Description: Briefly, plates (Nunc) were coated with human OX40 ECD at 1 μg/mL overnight at 4° C. […] After washing, TMB substrate was added and the interaction was stopped by 2M HCl.

[5] = target: T2, human OX40 extracellular domain (ECD) …; experiment: epitope binning by competition against labelled BMK7 on human OX40; the antibody named in the legend box is titrated; the text describes an ELISA, the axis on the sheet reads MFI
[6] = target: T1, human OX40, full-length, on cells; experiment: flow cytometry, CHO-K1 cells expressing human OX40, MESF beads
Description: as §1

[7] = target: T7, rhesus monkey OX40 on transfected 293F cells (rhesus monkey); experiment: flow cytometry on rhesus monkey OX40 transfected 293F cells
T7 construct: whole, on cells
Description: Testing antibodies were serially diluted in wash buffer (1×PBS/1% BSA) and incubated with cells at 4° C. for 1 h. After washing with 1×PB S/1% BSA, the secondary antibody goat anti-human IgG Fc-PE (Jackson ImmunoResearch Lab) was applied and incubated with cells at 4° C. in the dark for 1 h. The cells were then washed and resuspended in 1×PB S/1% BSA or fixed with 4% paraformaldehyde, and then analyzed by flow cytometry (BD).

[8] = target: T1, human OX40, full-length, on cells; experiment: FACS, transfected 293F cells, antibody 1 ug/mL
Description: (§3) Binding of antibodies to chimeric OX40 variants was analyzed by flow cytometry. […] Cells were analyzed using flow cytometer.

[9] = target: T4, mouse OX40 (mPro1) on transfected 293F …; experiment: FACS, transfected 293F cells, antibody 1 ug/mL
Description: as §3

[10] = target: T2, human OX40 extracellular domain (ECD) …; experiment: epitope binning by competition against labelled BMK10 on human OX40; the antibody named in the legend box is titrated; the text describes an ELISA, the axis on the sheet reads MFI
[11] = target: T1, human OX40, full-length, on cells; experiment: flow cytometry, MFI against antibody concentration; neither the legend nor paragraph 266 names the cells, target taken as cell-surface human OX40 because the antibodies are anti-OX40

Binder | EC50 (read off the curve) [1] | Kd [2] | koff [2] | kon [2] | EC50 (read off the curve) [3] | binding result (human 4-1BB (CD137) ECD) | binding result (human CD271 ECD) | binding result (human CD40 ECD) | IC50 (read off the curve) [4] | IC50 (read off the curve) [5] | Kd [6] | EC50 (read off the curve) [7] | MFI [8] | PE + % [8] | MFI [9] | PE + % [9] | IC50 (read off the curve) [10] | EC50 (read off the curve) [11]
1.7.10-u1-IgG1K (antibody, V domains shown, fully human IgG1, kappa) VH: QVHLVESGGGLVKPGGSLRLSCAASGFTFSDYYMSWIRQAPGKGLEWVSYISGSGNTIYYADSVKGRFTISRDNAKNSLYLQMNSLRADDTAVYFCARERGAAGTGWFDPWGQGTLVTVSS VL: DIQMTQSPSSVSASVGDRVTITCRASQGISSWLAWYQQKPGKAPKLLIYAASSLQGGVPSRFSGSGSGTDFTLTISSLQPEDFATYYCQQVNSFPWTFGQGTKVEIK | ~1 nM | 1.49 nM | 0.00128 s⁻¹ | 860000 M⁻¹ s⁻¹ | 1 to 2 nM | no binding | no binding | no binding | ~3 nM | ~4 nM |  |  |  |  |  |  |  | 
1.62.3-u1-IgG1K (antibody, V domains shown, fully human IgG1, kappa) VH: QVQLQESGPGLVKPSQTLSLTCTVSGGSISNGGYYWSWIRQHPGKGLEWIGYIYYSGSTYYNPSLKSRVTISVDTSKNQFSLKLSSVTAADTAVYYCARDEWELRGFDYWGQGTLVTVSS VL: not shown |  | 0.461 nM | 0.000243 s⁻¹ | 526000 M⁻¹ s⁻¹ |  | no binding | no binding | no binding | ~1 nM |  |  |  |  |  |  |  |  | ~0.8 nM
1.62.3-u1-3-IgG1K (antibody, V domains shown, fully human IgG1, kappa; PTM variant of 1.62.3-u1-IgG1K (G to A in CDRH1, C to S in CDRL1)) VH: QVQLQESGPGLVKPSQTLSLTCTVSGGSISNAGYYWSWIRQHPGKGLEWIGYIYYSGSTYYNPSLKSRVTISVDTSKNQFSLKLSSVTAADTAVYYCARDEWELRGFDYWGQGTLVTVSS VL: not shown | ~0.9 nM | 2.08 nM | 0.00145 s⁻¹ | 697000 M⁻¹ s⁻¹ | ~0.8 nM |  |  |  |  |  |  |  |  |  |  |  |  | ~2 nM

The remaining binders from weak to strong by Kd [2], led by results:

EC50 (read off the curve) [1] | Kd [2] | koff [2] | kon [2] | EC50 (read off the curve) [3] | binding result (human 4-1BB (CD137) ECD) | binding result (human CD271 ECD) | binding result (human CD40 ECD) | IC50 (read off the curve) [4] | IC50 (read off the curve) [5] | Kd [6] | EC50 (read off the curve) [7] | MFI [8] | PE + % [8] | MFI [9] | PE + % [9] | IC50 (read off the curve) [10] | EC50 (read off the curve) [11] | Binder
 | 1.16 nM | 0.000451 s⁻¹ | 390000 M⁻¹ s⁻¹ | ~2 nM | no binding | no binding | no binding | ~3 nM | ~4 nM |  |  |  |  |  |  |  |  | 1.186.19-u1-IgG1K (antibody, V domains shown, fully human IgG1, kappa) VH: QVHLVESGGGLVKPGGSLRLSCAASGFTFSDYYMGWIRQAPGQGLEWVSYISGSGNTIYYADSVKGRFTISRDNAKNSLYLQMNSLRADDTAVYFCAKERGAAGAGWFDPWGQGTLVTVSS VL: DIQMTQSPSSVSASVGDRVTITCRASQGISSWLAWYQQKPGKAPKLLIYAASSLQGGVPSRFSGSGSGTDFTLTISSLQPEDFATYHCQQVNSFPWTFGQGTKVEIK
~0.6 nM | 0.502 nM | 0.000214 s⁻¹ | 426000 M⁻¹ s⁻¹ |  | no binding | no binding | no binding | ~1 nM | ~1 nM | 0.067 nM | ~3 nM | 8320 | 89.3% | 49.9 | 0.315% | ~4 nM |  | 1.214.23-u1-IgG1K (antibody, V domains shown, fully human IgG1, kappa) VH: QVQLQESGPGLVKPSGTLSLTCVVSGGSISNRNWWSWVRQPPGKGLEWIGEIFHSGNTNYNPSLKSRVTISVDKSKNQFSLKVNSVTAADTAVYYCAKSFAVALDSWGQGTLVTVSS VL: DIQLTQSPSFLSASVGDRVTITCRASQDINSYLAWCQQKPGKAPKLLIYAASSLQSGVPSRFSGTGSGTEFTLTISSLQPEDFATYYCQQLFSYPITFGQGTRLEIK
